# Measured values reported in patent publication US20240173352A1 (published 2024).
# T1: HA-1(R), allelic variant of HA-1; Rho GTPase activating protein 45 (HMHA1) peptide on HLA-A*02:01 (human)
# T1 peptide: VLRDDLLEA
# T2: HA-1(H), minor histocompatibility antigen HA-1 variant H; Rho GTPase activating protein 45 (HMHA1) peptide on … (human)
# T2 peptide: VLHDDLLEA
# T3: mH-Y (MiHA-Y) peptide on H-2Db (mouse)
# T3 peptide: KCSRNRQYL
# B1: KP7 HA-1H TCR (TCR, V domains shown)
# Valpha: KNEVEQSPQNLTAQEGEFITINCSYSVGISALHWLQQHPGGGIVSLFMLSSGKKKHGRLIATINIQEKHSSLHITASHPRDSAVYICAVRSVSGAGSYQLTFGKGTKLSVIP
# Vbeta: DTGVSQNPRHKITKRGQNVTFRCDPISEHNRLYWYRQTLGQGPEFLTYFQNEAQLEKSRLLSDRFSAERPKGSFSTLEIQRTEQGDSAMYLCASSIDSFNEQFFGPGTRLTVL
# B2: H-Y TCRalpha P2A TCRbeta Jb2.3L (TCR, V domains shown)
# Valpha: AQSVDQPDAHVTLSEGASLELRCSYSYSAAPYLFWYVQYPGQSLQFLLKYITGDTVVKGTKGFEAEFRKSNSSFNLKKSPAHWSDSAKYFCALEGQDQGGSAKLIFGEGTKLTVSS
# Vbeta: EAAVTQSPRNKVAVTGGKVTLSCNQTNNHNNMYWYRQDTGHGLRLIHYSYGAGSTEKGDIPDGYKASRPSQENFSLILELATPSQTSVYFCASGDNSAETLYFGPGTRLLVL
# Tests used:
# Experiment in all cases: activation reporter or marker
# [1] = target: T1, HA-1(R), allelic variant of HA-1; Rho …
# [2] = target: T2, HA-1(H), minor histocompatibility …
# [3] = target: T3, mH-Y (MiHA-Y) peptide on H-2Db
Binder,binding result [1],binding result [2],binding result [3]
B1,no recognition,recognises,–
B2,–,–,recognises
